In the supplement of paper PMC6755084 one finds fraction ligated data, which are given here for 35 variants.

The labels stand for the following.
B1: F1*; a variant is named by its letters at N, in order (parent)
chain: GAGACCGCAACTGAAAAGTTGTTATCNNNNNNNNAANNNNNTTNGNNGGGTTGAAGTTCTGCACGTAGAAGCAAAAGGC

In this series the parent is B1. Kind of series: fraction ligated after 30 min (ligated reads / total reads); higher = more ligase activity. The settings on record: with F1*sub RNA substrate (template-directed ligation), 42 °C. As for the experimental part:
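Chip-synthesised pool of F1* ligase ribozyme variants (all single and double substitutions, single, double and triple deletions in the catalytic core and GAA bulge, plus designed variants) was transcribed with T7 and reacted as a pool with excess substrate F1*sub for 30 min at 42 C in 50 mM EPPS pH 8.5, 25 mM MgCl2. Ligated and unligated bands were separated by PAGE, barcoded by RT and deep sequenced; fraction ligated = ligated reads / total reads per variant, relative activity = FL / FL of wild type (0.826). Sequences are the DNA template of the ribozyme.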
Take GAGACCGCAACTGAAAAGTTGTTATCATTGTCGTAAGACACTTTGATGGGTTGAAGTTCTGCACGTAGAAGCAAAAGGC [ATTGTCGTGACACTAT]: the fraction ligated stood at 0.776. For GAGACCGCAACTGAAAAGTTGTTATCATTGTCGTAAGACACTTTGGAGGGTTGAAGTTCTGCACGTAGAAGCAAAAGGC [ATTGTCGTGACACTGA] the value was 0.12. For GAGACCGCAACTGAAAAGTTGTTATCACTTGTGTAAGACATTTGGATGGGTTGAAGTTCTGCACGTAGAAGCAAAAGGC [ACTTGTGTGACATGAT] the value was 0.841; for GAGACCGCAACTGAAAAGTTGTTATCACTTGTGTAAACACTTTGGATGGGTTGAAGTTCTGCACGTAGAAGCAAAAGGC [ACTTGTGTACACTGAT], 0.86; for GAGACCGCAACTGAAAAGTTGTTATCACTTTCGTAAGACACTTTGGAGGGTTGAAGTTCTGCACGTAGAAGCAAAAGGC [ACTTTCGTGACACTGA], 0.0557.

Turning to GAGACCGCAACTGAAAAGTTGTTATCACTTTCGTAAGACACTTTGGTGGGTTGAAGTTCTGCACGTAGAAGCAAAAGGC [ACTTTCGTGACACTGT], the fraction ligated is 0.0695.

In the case of GAGACCGCAACTGAAAAGTTGTTATCACTTGTCTAAACACTTTGGATGGGTTGAAGTTCTGCACGTAGAAGCAAAAGGC [ACTTGTCTACACTGAT], the fraction ligated is 0.817. Turning to GAGACCGCAACTGAAAAGTTGTTATCACTTGCGTAAACACTTTGGATGGGTTGAAGTTCTGCACGTAGAAGCAAAAGGC [ACTTGCGTACACTGAT], the fraction ligated stood at 0.837. Regarding GAGACCGCAACTGAAAAGTTGTTATCACTTTCGTAAGACACTTGGATGGGTTGAAGTTCTGCACGTAGAAGCAAAAGGC [ACTTTCGTGACACGAT], the fraction ligated stood at 0.779.

With GAGACCGCAACTGAAAAGTTGTTATCATTGTCGTAAACACTTTGGATGGGTTGAAGTTCTGCACGTAGAAGCAAAAGGC [ATTGTCGTACACTGAT], the fraction ligated stood at 0.799.

GAGACCGCAACTGAAAAGTTGTTATCATTGTCGTAAGACCTTTGGATGGGTTGAAGTTCTGCACGTAGAAGCAAAAGGC [ATTGTCGTGACCTGAT]: the fraction ligated worked out at 0.79.

GAGACCGCAACTGAAAAGTTGTTATCACTTGTCTAAGACACTTGGATGGGTTGAAGTTCTGCACGTAGAAGCAAAAGGC [ACTTGTCTGACACGAT]: the fraction ligated is 0.786. As for GAGACCGCAACTGAAAAGTTGTTATCATTGTCGTAAGACATTTGGATGGGTTGAAGTTCTGCACGTAGAAGCAAAAGGC [ATTGTCGTGACATGAT], the figure is 0.811. For GAGACCGCAACTGAAAAGTTGTTATCACTTGTCGAAGACACTTGGATGGGTTGAAGTTCTGCACGTAGAAGCAAAAGGC [ACTTGTCGGACACGAT] the value was 0.775. For the variant GAGACCGCAACTGAAAAGTTGTTATCACTTGTGTAAGACACTTTGGTGGGTTGAAGTTCTGCACGTAGAAGCAAAAGGC [ACTTGTGTGACACTGT], the fraction ligated is 0.0697.

For GAGACCGCAACTGAAAAGTTGTTATCACTTGTGTAAGACACTTTGGAGGGTTGAAGTTCTGCACGTAGAAGCAAAAGGC [ACTTGTGTGACACTGA], the fraction ligated was 0.0628. For GAGACCGCAACTGAAAAGTTGTTATCACTTTCGTAAACACTTTGGATGGGTTGAAGTTCTGCACGTAGAAGCAAAAGGC [ACTTTCGTACACTGAT] the value was 0.811; for GAGACCGCAACTGAAAAGTTGTTATCACTTGTCGAAGACATTTGGATGGGTTGAAGTTCTGCACGTAGAAGCAAAAGGC [ACTTGTCGGACATGAT], 0.831. As for GAGACCGCAACTGAAAAGTTGTTATCCTTGTCGTAAACACTTTGGATGGGTTGAAGTTCTGCACGTAGAAGCAAAAGGC [CTTGTCGTACACTGAT], the figure is 0.772; as for GAGACCGCAACTGAAAAGTTGTTATCACTGTCGTAAGAACTTTGGATGGGTTGAAGTTCTGCACGTAGAAGCAAAAGGC [ACTGTCGTGAACTGAT], 0.858. As for GAGACCGCAACTGAAAAGTTGTTATCCTTGTCGTAAGCACTTTGGATGGGTTGAAGTTCTGCACGTAGAAGCAAAAGGC [CTTGTCGTGCACTGAT], the figure is 0.776; as for GAGACCGCAACTGAAAAGTTGTTATCACTGTCGTAAGCACTTTGGATGGGTTGAAGTTCTGCACGTAGAAGCAAAAGGC [ACTGTCGTGCACTGAT], 0.833. With GAGACCGCAACTGAAAAGTTGTTATCACTTGCGTAAGACACTTTGATGGGTTGAAGTTCTGCACGTAGAAGCAAAAGGC [ACTTGCGTGACACTAT], the fraction ligated stood at 0.802. GAGACCGCAACTGAAAAGTTGTTATCACTGTCGTAAGACACTTGGATGGGTTGAAGTTCTGCACGTAGAAGCAAAAGGC [ACTGTCGTGACACGAT]: the fraction ligated amounted to 0.812.

Take GAGACCGCAACTGAAAAGTTGTTATCACTTGCGTAAGCACTTTGGATGGGTTGAAGTTCTGCACGTAGAAGCAAAAGGC [ACTTGCGTGCACTGAT]: the fraction ligated was 0.856. As for GAGACCGCAACTGAAAAGTTGTTATCACTTGTCGAAGACACTTTGGAGGGTTGAAGTTCTGCACGTAGAAGCAAAAGGC [ACTTGTCGGACACTGA], the figure is 0.15; as for GAGACCGCAACTGAAAAGTTGTTATCACTTGTCGAAGACACTTTGGTGGGTTGAAGTTCTGCACGTAGAAGCAAAAGGC [ACTTGTCGGACACTGT], 0.236; as for GAGACCGCAACTGAAAAGTTGTTATCACTTGCGTAAGACACTTTGGAGGGTTGAAGTTCTGCACGTAGAAGCAAAAGGC [ACTTGCGTGACACTGA], 0.128. Take GAGACCGCAACTGAAAAGTTGTTATCACTTGCGTAAGACACTTTGGTGGGTTGAAGTTCTGCACGTAGAAGCAAAAGGC [ACTTGCGTGACACTGT]: the fraction ligated is 0.143.

As for GAGACCGCAACTGAAAAGTTGTTATCACTTGTCTAAGACACTTTGATGGGTTGAAGTTCTGCACGTAGAAGCAAAAGGC [ACTTGTCTGACACTAT], the fraction ligated is 0.775.

With GAGACCGCAACTGAAAAGTTGTTATCCTTGTCGTAAGAACTTTGGATGGGTTGAAGTTCTGCACGTAGAAGCAAAAGGC [CTTGTCGTGAACTGAT], the fraction ligated turned out to be 0.809. On to GAGACCGCAACTGAAAAGTTGTTATCATTGTCGTAAGACACTTGGATGGGTTGAAGTTCTGCACGTAGAAGCAAAAGGC [ATTGTCGTGACACGAT], for which the fraction ligated is 0.806. For GAGACCGCAACTGAAAAGTTGTTATCACTTGTCTAAGACCTTTGGATGGGTTGAAGTTCTGCACGTAGAAGCAAAAGGC [ACTTGTCTGACCTGAT] the value was 0.783. As for GAGACCGCAACTGAAAAGTTGTTATCACTGTCGTAAGACACTTTGATGGGTTGAAGTTCTGCACGTAGAAGCAAAAGGC [ACTGTCGTGACACTAT], the figure is 0.79; as for GAGACCGCAACTGAAAAGTTGTTATCACTTGTGTAAGACACTTTGATGGGTTGAAGTTCTGCACGTAGAAGCAAAAGGC [ACTTGTGTGACACTAT], 0.797.
